Laboratory results published in US20210122824A1 (ADAGENE, published 2021).
Residue numbers refer to the chain shown, from its start.

B1: B15016 (Fab, V domains shown)
VH: EVQLVESGGGLVQPGGSLRLSCAASGYSISSGYYWGWIRQAPGKGLEWIGIIYPSGGGTNYAQKFQGRVTISRDNSKNTLYLQLNSLRAEDTAVYYCARGGGLGFDYWGQGTLVTVSS
VL: DIQLTQSPSSLSASVGDRVTITCRASQTIPSFLNWYQQKPGKAPKLLIYAASSLQSGVPSRFSGSGSGTDFTLTISSLQPEDFATYYCQHYTSWPRQFTFGQGTKVEIKR
notes: Fab from E. coli
B2: B14032 (Fab, V domains shown)
VH: B1 VH
VL: B1 VL with R24Q, T28D, S31T, N34A, H90Q, T92V, Q97G
notes: Fab from E. coli
B3: B15012 (Fab, V domains shown)
VH: B1 VH
VL: B1 VL with S53T, T92S, Q97G
notes: Fab from E. coli
B4: B15014 (Fab, V domains shown)
VH: B1 VH
VL: B1 VL with T28D, S31K, N34A, S53T, T92V
notes: Fab from E. coli
B5: B15022 (Fab, V domains shown)
VH: B1 VH
VL: B1 VL with T28S, S53T, H90Q, T92S, Q97L
notes: Fab from E. coli
B6: B15024 (Fab, V domains shown)
VH: B1 VH
VL: B1 VL with T28S, S31T, S53T, T92V, Q97L
notes: Fab from E. coli
B7: B15074 (Fab, V domains shown)
VH: B1 VH
VL: B1 VL with S53T, T92I, Q97V
notes: Fab from E. coli
B8: B15082 (Fab, V domains shown)
VH: B1 VH
VL: B1 VL with T92G, Q97R
notes: Fab from E. coli
B9: B15041 (Fab, V domains shown)
VH: B1 VH
VL: B1 VL with T28S, T92I
notes: Fab from E. coli
B10: B13002 (Fab, V domains shown)
VH: EVQLVESGGGLVQPGGSLRLSCAASGYTFSNYGIHWVRQAPGKGLEWIGWIYPSGGGTKYAQKFQGRVTISRDNSKNTLYLQLNSLRAEDTAVYYCAREGGGYGYALDYWGQGTLVTVSS
VL: DIQLTQSPSSLSASVGDRVTITCRASQGVSSYLAWYQQKPGKAPKLLIYDASNLETGVPSRFSGSGSGTDFTLTISSLQPEDFATYYCQQYDAWPYTFGQGTKVEIKR
notes: Fab from E. coli
B11: B13004 (Fab, V domains shown)
VH: B10 VH
VL: B10 VL with V29I, S31P, Y32W, L54R, E55A, V58I, A93S
notes: Fab from E. coli
B12: B13005 (Fab, V domains shown)
VH: B10 VH
VL: B10 VL with G28S
notes: Fab from E. coli
B13: B14033 (Fab, V domains shown)
VH: B10 VH
VL: B10 VL with V29I, S30G, Y32F, N53S, T56S, A93Y
notes: Fab from E. coli
B14: B14627 (Fab, V domains shown)
VH: B10 VH
VL: B10 VL with G28S, Y32W, N53S, T56S, A93S
notes: Fab from E. coli
B15: B14634 (Fab, V domains shown)
VH: B10 VH
VL: B10 VL with G28S, S31P
notes: Fab from E. coli
B16: B14652 (Fab, V domains shown)
VH: B10 VH
VL: B10 VL with S31P, Y32W, N53S, T56S
notes: Fab from E. coli
B17: B14654 (Fab, V domains shown)
VH: B10 VH
VL: B10 VL with G28S, S31P, L54R, E55A, V58I
notes: Fab from E. coli
B18: B14674 (Fab, V domains shown)
VH: B10 VH
VL: B10 VL with G28S, V29I, S30E, S31K, Y32W, N53S, T56S
notes: Fab from E. coli
B19: B14622 (Fab, V domains shown)
VH: B10 VH
VL: DIQLTQSPSSLSASVGDRVTITCRASQSVDFYGKSFLDWYQQKPGKAPKLLIYDASNRATGIPSRFSGSGSGTDFTLTISSLQPEDFATYYCQQYDSWPYTFGQGTKVEIKR
notes: Fab from E. coli
B20: B14614 (Fab, V domains shown)
VH: B10 VH
VL: B19 VL with Q27E
notes: Fab from E. coli
B21: B14615 (Fab, V domains shown)
VH: B10 VH
VL: B19 VL with D38A, N57S, R58L, A59E, T60S, I62V, S97H
notes: Fab from E. coli
B22: B14617 (Fab, V domains shown)
VH: B10 VH
VL: B19 VL with Q27E, Y32F, D38A, N57S, R58L, A59E, T60S, I62V
notes: Fab from E. coli
B23: B14631 (Fab, V domains shown)
VH: B10 VH
VL: B19 VL with Q27E, Y32F, D38A, R58L, A59E, I62V, S97H
notes: Fab from E. coli
B24: B14633 (Fab, V domains shown)
VH: B10 VH
VL: B19 VL with Q27E, Y32H, K34I, D38A, S97H
notes: Fab from E. coli
B25: B14642 (Fab, V domains shown)
VH: B10 VH
VL: B19 VL with D38A, N57S, R58L, A59E, T60S, I62V, S97A
notes: Fab from E. coli
B26: B14644 (Fab, V domains shown)
VH: B10 VH
VL: B19 VL with Q27E, D38A, S97Y
notes: Fab from E. coli
B27: B14645 (Fab, V domains shown)
VH: B10 VH
VL: B19 VL with R58L, A59E, I62V, S97A
notes: Fab from E. coli
B28: B14650 (Fab, V domains shown)
VH: B10 VH
VL: B19 VL with Q27E, S97H
notes: Fab from E. coli
B29: B14651 (Fab, V domains shown)
VH: B10 VH
VL: B19 VL with Q27E, Y32H, D38A, S97H
notes: Fab from E. coli
B30: B14658 (Fab, V domains shown)
VH: B10 VH
VL: B19 VL with Y32H
notes: Fab from E. coli
B31: B14665 (Fab, V domains shown)
VH: B10 VH
VL: B19 VL with D38A, N57S, R58L, A59E, T60S, I62V
notes: Fab from E. coli
B32: B14673 (Fab, V domains shown)
VH: B10 VH
VL: B19 VL with Q27E, D38A, N57S, R58L, A59E, T60S, I62V
notes: Fab from E. coli
B33: B14681 (Fab, V domains shown)
VH: B10 VH
VL: B19 VL with Y32H, K34I, S97H
notes: Fab from E. coli
B34: B14689 (Fab, V domains shown)
VH: B10 VH
VL: B19 VL with N57S, R58L, A59E, T60S, I62V, S97H
notes: Fab from E. coli
B35: B14690 (Fab, V domains shown)
VH: B10 VH
VL: B19 VL with Y32H, K34I, R58L, A59E, I62V
notes: Fab from E. coli
B36: B14638 (Fab, V domains shown)
VH: B10 VH
VL: DIQLTQSPSSLSASVGDRVTITCRASQSVGSIYLGWYQQKPGKAPKLLIYDASNRATGIPSRFSGSGSGTDFTLTISSLQPEDFATYYCQQYDSWPYTFGQGTKVEIKR
notes: Fab from E. coli

How the values were obtained:
[1] = target: T1, mouse PD-L1-Fc fusion protein (mouse, UniProt Q9EP73 19-238, limits assumed); assay: BLI (ForteBio), PD-L1 on AHC sensor, Fab in solution
T1 construct: not shown: Fc part
T1 sequence (Q9EP73 19-238 limits assumed): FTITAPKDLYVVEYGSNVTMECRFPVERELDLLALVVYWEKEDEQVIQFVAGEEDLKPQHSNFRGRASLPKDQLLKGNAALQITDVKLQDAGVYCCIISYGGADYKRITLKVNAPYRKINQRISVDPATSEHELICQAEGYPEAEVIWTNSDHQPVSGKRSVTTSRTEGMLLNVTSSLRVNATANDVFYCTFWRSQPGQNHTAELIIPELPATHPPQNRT

[2] = target: T2, human PD-L1-Fc fusion protein (Sino Biological Cat #10084-H02H) (human, UniProt Q9NZQ7 19-239); assay: BLI (ForteBio), PD-L1-Fc on AHC sensor, Fab in solution
T2 construct: bought; not shown: Fc part of the bought fusion
T2 sequence (Q9NZQ7 19-239 limits assumed): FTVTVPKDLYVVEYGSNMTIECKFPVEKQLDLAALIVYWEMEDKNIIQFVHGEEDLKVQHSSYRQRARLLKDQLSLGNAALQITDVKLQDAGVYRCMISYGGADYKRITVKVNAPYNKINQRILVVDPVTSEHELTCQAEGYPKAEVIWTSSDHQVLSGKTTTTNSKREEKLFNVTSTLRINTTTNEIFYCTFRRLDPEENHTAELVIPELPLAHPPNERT

Binder | Kd [1] [nM] | Kd [2] [nM]
B1 | 2.84 | 3.56
B2 | 4.84 | 5.11
B3 | 2.03 | 1.76
B4 | 3.87 | 2.43
B5 | 3.03 | 3.68
B6 | 3.48 | 4.52
B7 | 2.98 | 4.31
B8 | 3.23 | 4.79
B9 | 1.67 | 1.68
B10 |  | 0.251
B11 |  | 0.3
B12 |  | 0.346
B13 |  | 0.875
B14 |  | 0.182
B15 |  | 0.207
B16 |  | 0.294
B17 |  | 0.232
B18 |  | 0.502

Binder | Kd [1] [nM] | Kd [2] [nM]
B19 |  | 0.274
B20 |  | 0.353
B21 |  | 0.228
B22 |  | 0.288
B23 |  | 0.183
B24 |  | 0.322
B25 |  | 0.189
B26 |  | 0.248
B27 |  | 0.296
B28 |  | 0.357
B29 |  | 0.301
B30 |  | 0.142
B31 |  | 0.369
B32 |  | 0.323
B33 |  | 0.543
B34 |  | 0.163
B35 |  | 0.467
B36 |  | 0.314
